# According to PMC9352680, “A comprehensive thermodynamic model for RNA binding by the Saccharomyces cerevisiae Pumilio protein PUF4”:
# T1: PUF4 RNA-binding domain (Saccharomyces cerevisiae, UniProt P25339 537-888)
# T1 sequence: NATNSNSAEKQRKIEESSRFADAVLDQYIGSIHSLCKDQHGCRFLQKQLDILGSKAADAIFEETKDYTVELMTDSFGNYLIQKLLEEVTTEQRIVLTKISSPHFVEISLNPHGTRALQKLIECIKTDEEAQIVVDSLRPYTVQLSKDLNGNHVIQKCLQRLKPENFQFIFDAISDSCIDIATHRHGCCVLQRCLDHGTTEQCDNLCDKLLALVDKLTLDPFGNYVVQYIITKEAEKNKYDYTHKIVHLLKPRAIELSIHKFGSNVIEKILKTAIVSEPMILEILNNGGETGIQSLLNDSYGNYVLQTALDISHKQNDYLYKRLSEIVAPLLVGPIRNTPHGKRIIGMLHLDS
# Target: T1, PUF4 RNA-binding domain
# Assay: Mg; RNA-MaP; 20 mM Na-HEPES pH 7.4, 30 mM KOAc, 0.75 mM MgCl2, 0.1% Tween-20, 5% glycerol, 0.1 mg/mL BSA, 2 mM DTT; 25 C; 0.0125-409.6 nM protein
# Conditions: tags: N-His6-TEV cleaved; C-SNAP kept, Cy3B-labelled; label: tethered on chip by stalled RNA polymerase
row,Binder,Kd
1,UCUCUUUUUAUAUUAUCUCUU (ssRNA) [Ia_S1_P4E.1_K4.1_C4.1_H4.1_[G2T]_A4.1_F4.1_T4.1],655 nM
2,UCUCUUCGUAUAUUCUCUCUU (ssRNA) [Ib_S1_P4E.1_K4.1_C4.1_H4.1_[T1C]_A4.1_F4.1_[A9C]_T4.1],1140 nM
3,UCUCUUGGUAUAUUCUCUCUU (ssRNA) [Ib_S1_P4E.1_K4.1_C4.1_H4.1_[T1G]_A4.1_F4.1_[A9C]_T4.1],> 2300 nM
4,UCUCUUCGUAUAUUGUCUCUU (ssRNA) [Ib_S1_P4E.1_K4.1_C4.1_H4.1_[T1C]_A4.1_F4.1_[A9G]_T4.1],663 nM
5,Ic_S2_P5E.1_K5.1_C5.1_H5.1_A5.1_[T6G]_[A7C]_F5.1_[T8C]_[T9C]_[A10T]_T5.1 (ssRNA) RNA: UUUGAUUAAUAUGAUAUCGUUCUUUCUUGUAUGCCCUUUCUUUCUCGAUAUCAUAUUAAUCUUU,582 nM
6,Ic_S2_P5E.1_K5.1_C5.1_H5.1_A5.1_[T5A]_[A7T]_F5.1_[T9G]_[A10C]_T5.1 (ssRNA) RNA: UUUGAUUAAUAUGAUAUCGUUCUUUCUUGUAAUUUGCUUCUUUCUCGAUAUCAUAUUAAUCUUU,70.7 nM
7,Ic_S2_P5E.1_K5.1_C5.1_H5.1_A5.1_[T5G]_[T6C]_[A7T]_F5.1_[T8G]_[T9G]_[A10T]_T5.1 (ssRNA) RNA: UUUGAUUAAUAUGAUAUCGUUCUUUCUUGUAGCUGGUUUCUUUCUCGAUAUCAUAUUAAUCUUU,679 nM
8,Ic_S2_P5E.1_K5.1_C5.1_H5.1_A5.1_[T5A]_[A7C]_F5.1_[T9A]_T5.1 (ssRNA) RNA: UUUGAUUAAUAUGAUAUCGUUCUUUCUUGUAAUCUAAUUCUUUCUCGAUAUCAUAUUAAUCUUU,8.11 nM
9,Ic_S2_P5E.1_K5.1_C5.1_H5.1_A5.1_[T5A]_[A7T]_F5.1_[T8A]_[T9C]_[A10G]_T5.1 (ssRNA) RNA: UUUGAUUAAUAUGAUAUCGUUCUUUCUUGUAAUUACGUUCUUUCUCGAUAUCAUAUUAAUCUUU,761 nM
10,Ic_S2_P5E.1_K5.1_C5.1_H5.1_A5.1_[T5C]_[A7G]_F5.1_[T8G]_T5.1 (ssRNA) RNA: UUUGAUUAAUAUGAUAUCGUUCUUUCUUGUACUGGUAUUCUUUCUCGAUAUCAUAUUAAUCUUU,38.2 nM
11,Ic_S2_P5E.1_K5.1_C5.1_H5.1_A5.1_[T6A]_[A7C]_F5.1_[T8C]_[T9C]_[A10G]_T5.1 (ssRNA) RNA: UUUGAUUAAUAUGAUAUCGUUCUUUCUUGUAUACCCGUUCUUUCUCGAUAUCAUAUUAAUCUUU,69.2 nM
12,Ic_S2_P5E.1_K5.1_C5.1_H5.1_A5.1_[T6C]_[A7T]_F5.1_[T8A]_T5.1 (ssRNA) RNA: UUUGAUUAAUAUGAUAUCGUUCUUUCUUGUAUCUAUAUUCUUUCUCGAUAUCAUAUUAAUCUUU,3.38 nM
13,Ic_S2_P5E.1_K5.1_C5.1_H5.1_A5.1_[T5C]_[T6C]_[A7C]_F5.1_[T8A]_[T9G]_[A10C]_T5.1 (ssRNA) RNA: UUUGAUUAAUAUGAUAUCGUUCUUUCUUGUACCCAGCUUCUUUCUCGAUAUCAUAUUAAUCUUU,768 nM
14,Ic_S2_P5E.1_K5.1_C5.1_H5.1_A5.1_[T5C]_[T6A]_[A7T]_F5.1_[T9A]_[A10C]_T5.1 (ssRNA) RNA: UUUGAUUAAUAUGAUAUCGUUCUUUCUUGUACAUUACUUCUUUCUCGAUAUCAUAUUAAUCUUU,0.894 nM
15,Ic_S2_P5E.1_K5.1_C5.1_H5.1_A5.1_[T5C]_[A7G]_F5.1_[T9A]_[A10T]_T5.1 (ssRNA) RNA: UUUGAUUAAUAUGAUAUCGUUCUUUCUUGUACUGUAUUUCUUUCUCGAUAUCAUAUUAAUCUUU,2.45 nM
16,Ic_S2_P5E.1_K5.1_C5.1_H5.1_A5.1_[A7C]_F5.1_[T8G]_[A10T]_T5.1 (ssRNA) RNA: UUUGAUUAAUAUGAUAUCGUUCUUUCUUGUAUUCGUUUUCUUUCUCGAUAUCAUAUUAAUCUUU,67.8 nM
17,Ic_S2_P5E.1_K5.1_C5.1_H5.1_A5.1_[T5C]_[T6C]_F5.1_[T9C]_[A10C]_T5.1 (ssRNA) RNA: UUUGAUUAAUAUGAUAUCGUUCUUUCUUGUACCAUCCUUCUUUCUCGAUAUCAUAUUAAUCUUU,8.45 nM
18,Ic_S2_P5E.1_K5.1_C5.1_H5.1_A5.1_[T5C]_[A7T]_F5.1_[T8A]_[T9C]_[A10G]_T5.1 (ssRNA) RNA: UUUGAUUAAUAUGAUAUCGUUCUUUCUUGUACUUACGUUCUUUCUCGAUAUCAUAUUAAUCUUU,623 nM
19,Ic_S2_P5E.1_K5.1_C5.1_H5.1_A5.1_[T6A]_[A7T]_F5.1_[T9C]_[A10C]_T5.1 (ssRNA) RNA: UUUGAUUAAUAUGAUAUCGUUCUUUCUUGUAUAUUCCUUCUUUCUCGAUAUCAUAUUAAUCUUU,2.26 nM
20,Ic_S2_P5E.1_K5.1_C5.1_H5.1_A5.1_[T5G]_[A7C]_F5.1_[T8A]_[A10G]_T5.1 (ssRNA) RNA: UUUGAUUAAUAUGAUAUCGUUCUUUCUUGUAGUCAUGUUCUUUCUCGAUAUCAUAUUAAUCUUU,450 nM
21,Ic_S2_P5E.1_K5.1_C5.1_H5.1_A5.1_[T6C]_[A7G]_F5.1_[T8A]_[A10C]_T5.1 (ssRNA) RNA: UUUGAUUAAUAUGAUAUCGUUCUUUCUUGUAUCGAUCUUCUUUCUCGAUAUCAUAUUAAUCUUU,1490 nM
22,Ic_S2_P5E.1_K5.1_C5.1_H5.1_A5.1_[T5C]_[A7G]_F5.1_[T9G]_[A10T]_T5.1 (ssRNA) RNA: UUUGAUUAAUAUGAUAUCGUUCUUUCUUGUACUGUGUUUCUUUCUCGAUAUCAUAUUAAUCUUU,50.8 nM

row,Binder,Kd
1,Ic_S2_P5E.1_K5.1_C5.1_H5.1_A5.1_[T6A]_F5.1_[T8C]_[T9G]_[A10T]_T5.1 (ssRNA) RNA: UUUGAUUAAUAUGAUAUCGUUCUUUCUUGUAUAACGUUUCUUUCUCGAUAUCAUAUUAAUCUUU,15 nM
2,Ic_S2_P5E.1_K5.1_C5.1_H5.1_A5.1_[T5C]_F5.1_[T8C]_[T9C]_[A10C]_T5.1 (ssRNA) RNA: UUUGAUUAAUAUGAUAUCGUUCUUUCUUGUACUACCCUUCUUUCUCGAUAUCAUAUUAAUCUUU,245 nM
3,Ic_S2_P5E.1_K5.1_C5.1_H5.1_A5.1_[T5C]_[T6C]_[A7C]_F5.1_[A10T]_T5.1 (ssRNA) RNA: UUUGAUUAAUAUGAUAUCGUUCUUUCUUGUACCCUUUUUCUUUCUCGAUAUCAUAUUAAUCUUU,8.63 nM
4,Ic_S2_P5E.1_K5.1_C5.1_H5.1_A5.1_[T6G]_[A7T]_F5.1_[T8G]_[T9C]_[A10C]_T5.1 (ssRNA) RNA: UUUGAUUAAUAUGAUAUCGUUCUUUCUUGUAUGUGCCUUCUUUCUCGAUAUCAUAUUAAUCUUU,49 nM
5,Ic_S2_P5E.1_K5.1_C5.1_H5.1_A5.1_[T5A]_F5.1_[T8A]_[A10G]_T5.1 (ssRNA) RNA: UUUGAUUAAUAUGAUAUCGUUCUUUCUUGUAAUAAUGUUCUUUCUCGAUAUCAUAUUAAUCUUU,183 nM
6,Ic_S2_P5E.1_K5.1_C5.1_H5.1_A5.1_[T5C]_[T6A]_[A7G]_F5.1_[T9C]_[A10C]_T5.1 (ssRNA) RNA: UUUGAUUAAUAUGAUAUCGUUCUUUCUUGUACAGUCCUUCUUUCUCGAUAUCAUAUUAAUCUUU,13.5 nM
7,Ic_S2_P5E.1_K5.1_C5.1_H5.1_A5.1_[T5G]_[A7G]_F5.1_[T8G]_[T9C]_[A10C]_T5.1 (ssRNA) RNA: UUUGAUUAAUAUGAUAUCGUUCUUUCUUGUAGUGGCCUUCUUUCUCGAUAUCAUAUUAAUCUUU,> 2300 nM
8,Ic_S2_P5E.1_K5.1_C5.1_H5.1_A5.1_[A7C]_F5.1_[T8C]_[T9A]_T5.1 (ssRNA) RNA: UUUGAUUAAUAUGAUAUCGUUCUUUCUUGUAUUCCAAUUCUUUCUCGAUAUCAUAUUAAUCUUU,622 nM
9,Ic_S2_P5E.1_K5.1_C5.1_H5.1_A5.1_[T5A]_[A7C]_F5.1_[T8C]_[T9G]_[A10C]_T5.1 (ssRNA) RNA: UUUGAUUAAUAUGAUAUCGUUCUUUCUUGUAAUCCGCUUCUUUCUCGAUAUCAUAUUAAUCUUU,1200 nM
10,Ic_S2_P5E.1_K5.1_C5.1_H5.1_A5.1_[T5A]_[T6C]_[A7T]_F5.1_[T9G]_[A10T]_T5.1 (ssRNA) RNA: UUUGAUUAAUAUGAUAUCGUUCUUUCUUGUAACUUGUUUCUUUCUCGAUAUCAUAUUAAUCUUU,304 nM
11,Ic_S2_P5E.1_K5.1_C5.1_H5.1_A5.1_[T5C]_[T6G]_[A7T]_F5.1_[T8G]_[A10T]_T5.1 (ssRNA) RNA: UUUGAUUAAUAUGAUAUCGUUCUUUCUUGUACGUGUUUUCUUUCUCGAUAUCAUAUUAAUCUUU,22.9 nM
12,Ic_S2_P5E.1_K5.1_C5.1_H5.1_A5.1_[T5A]_[T6C]_[A7C]_F5.1_[T8A]_[A10G]_T5.1 (ssRNA) RNA: UUUGAUUAAUAUGAUAUCGUUCUUUCUUGUAACCAUGUUCUUUCUCGAUAUCAUAUUAAUCUUU,751 nM
13,Ic_S2_P5E.1_K5.1_C5.1_H5.1_A5.1_[T6A]_F5.1_[T8A]_[T9A]_T5.1 (ssRNA) RNA: UUUGAUUAAUAUGAUAUCGUUCUUUCUUGUAUAAAAAUUCUUUCUCGAUAUCAUAUUAAUCUUU,34.6 nM
14,Ic_S2_P5E.1_K5.1_C5.1_H5.1_A5.1_[T6C]_[A7G]_F5.1_[T8C]_[T9C]_T5.1 (ssRNA) RNA: UUUGAUUAAUAUGAUAUCGUUCUUUCUUGUAUCGCCAUUCUUUCUCGAUAUCAUAUUAAUCUUU,844 nM
15,Ic_S2_P5E.1_K5.1_C5.1_H5.1_A5.1_[T6C]_F5.1_[T9G]_[A10C]_T5.1 (ssRNA) RNA: UUUGAUUAAUAUGAUAUCGUUCUUUCUUGUAUCAUGCUUCUUUCUCGAUAUCAUAUUAAUCUUU,12.1 nM
16,Ic_S2_P5E.1_K5.1_C5.1_H5.1_A5.1_[T5C]_[T6A]_F5.1_[T9C]_[A10T]_T5.1 (ssRNA) RNA: UUUGAUUAAUAUGAUAUCGUUCUUUCUUGUACAAUCUUUCUUUCUCGAUAUCAUAUUAAUCUUU,7.59 nM
17,Ic_S2_P5E.1_K5.1_C5.1_H5.1_A5.1_[T5G]_[A7C]_F5.1_[T8G]_[T9C]_[A10C]_T5.1 (ssRNA) RNA: UUUGAUUAAUAUGAUAUCGUUCUUUCUUGUAGUCGCCUUCUUUCUCGAUAUCAUAUUAAUCUUU,1490 nM
18,Ic_S2_P5E.1_K5.1_C5.1_H5.1_A5.1_[T5C]_[T6A]_[A7C]_F5.1_[T8A]_[A10G]_T5.1 (ssRNA) RNA: UUUGAUUAAUAUGAUAUCGUUCUUUCUUGUACACAUGUUCUUUCUCGAUAUCAUAUUAAUCUUU,114 nM
19,Ic_S2_P5E.1_K5.1_C5.1_H5.1_A5.1_[T5A]_[A7T]_F5.1_[T9C]_[A10G]_T5.1 (ssRNA) RNA: UUUGAUUAAUAUGAUAUCGUUCUUUCUUGUAAUUUCGUUCUUUCUCGAUAUCAUAUUAAUCUUU,108 nM
20,Ic_S2_P5E.1_K5.1_C5.1_H5.1_A5.1_[T5C]_[T6C]_F5.1_[T8C]_[T9C]_[A10G]_T5.1 (ssRNA) RNA: UUUGAUUAAUAUGAUAUCGUUCUUUCUUGUACCACCGUUCUUUCUCGAUAUCAUAUUAAUCUUU,619 nM
21,Ic_S2_P5E.1_K5.1_C5.1_H5.1_A5.1_[T5A]_[A7G]_F5.1_[T8C]_[A10T]_T5.1 (ssRNA) RNA: UUUGAUUAAUAUGAUAUCGUUCUUUCUUGUAAUGCUUUUCUUUCUCGAUAUCAUAUUAAUCUUU,423 nM
22,UCUCUUAGUAUAUUGUCUCUU (ssRNA) [Ib_S1_P4E.1_K4.1_C4.1_H4.1_[T1A]_A4.1_F4.1_[A9G]_T4.1],631 nM
